These results are taken from paper PMC5095914.

In general, Kd refers to the equilibrium constant for the complex coming apart. Low readings indicate tighter binding, high ones weaker binding. One may read the stoichiometry N as the number of molecules, sites or subunits per partner or assembly.

Assay [1] addresses YidC cysteine mutant labelled with Cy3 at position 454 (E. coli) (UniProt P25714). The assay is described as follows: other fluorescence titration; 60 nM Cy3-labelled YidC in 20 mM Hepes/KOH pH 7.5, 100 mM KCl, 10 mM MgOAc2, 5% glycerol, 0.1% DDM mixed 1:1 with 0.6 nM to 19.2 µM 70S ribosomes; 10 min at 20°C; fluorescence intensity on a Monolith NT.115; four repeats.
Assay [2] deals with xFOc (subunit c of the ATP synthase with cysteines C21 and C65), in vitro translated (E. coli) (UniProt P68699). The assay is described as follows: cross-linking; xFOc translated in vitro and inserted into proteoliposomes (large scale); mild oxidising conditions (lipids, atmospheric oxygen), no CuPh; non-reducing SDS-PAGE, phosphor imaging; c10-ring with HTL, SecYEG or without YidC, not with YidC alone.

In assay [3] the target is xFOc (subunit c of the ATP synthase with cysteines C21 and C65), expressed in E. coli C43 membranes (E. coli) (UniProt P68699). Description: cross-linking; E. coli C43 membranes expressing xFOc oxidised with copper-1,10-phenanthroline (CuPh), with or without DTT; SDS-PAGE, western blotting with FOc antibody.

In turn, 70S ribosomes (complex) had a Kd in assay [1] of 161 nM.
As to “xFOc (subunit c of the ATP synthase with cysteines C21 and C65), in vitro translated (from UniProt P68699 1-79) (natural protein)”, the stoichiometry N in assay [2] stood at 10.
Turning to “xFOc (subunit c of the ATP synthase with cysteines C21 and C65), expressed in E. coli C43 membranes (from UniProt P68699 1-79) (natural protein)”, the stoichiometry N in assay [3] is 10.
